Data as given in patent US20230365709A1 (published 2023).

Assays:
[1] = biological target: T1, recombinant human CD64 expressed on the surface of CHO cells (human, UniProt P12314 16-374); experiment: flow cytometry, CHO-huCD64 cells, apparent KD; SD 6.6
T1 construct: whole, on cells; also called huCD64

[2] = biological target: T2, recombinant human CD16A (48R/158F) expressed on the surface of CHO cells (human, UniProt P08637 17-254); experiment: flow cytometry, CHO-huCD16A cells, apparent KD; SD n.a.
T2 construct: also called huCD16A; CD16A (158F)

[3] = biological target: T3, recombinant human NKp46 expressed on the surface of CHO cells (human, UniProt O76036 22-304); experiment: flow cytometry, CHO-huNKp46 cells, apparent KD; SD 3.7
T3 construct: whole, on cells; also called huNKp46; CD355
T3 sequence (O76036 22-304): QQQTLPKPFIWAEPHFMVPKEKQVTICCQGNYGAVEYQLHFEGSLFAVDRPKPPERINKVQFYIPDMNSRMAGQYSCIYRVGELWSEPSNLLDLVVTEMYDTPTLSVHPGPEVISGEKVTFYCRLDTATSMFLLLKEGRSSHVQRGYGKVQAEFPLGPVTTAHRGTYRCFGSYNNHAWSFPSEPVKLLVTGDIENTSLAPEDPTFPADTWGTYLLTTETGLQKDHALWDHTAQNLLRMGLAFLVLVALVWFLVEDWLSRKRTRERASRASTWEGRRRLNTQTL

[4] = biological target: T4, recombinant human CD32A expressed on the surface of CHO cells (human, UniProt P12318 34-317); experiment: flow cytometry, CHO-huCD32A cells, apparent KD; SD 64.3
T4 construct: whole, on cells; also called huCD32A
T4 sequence (looked up): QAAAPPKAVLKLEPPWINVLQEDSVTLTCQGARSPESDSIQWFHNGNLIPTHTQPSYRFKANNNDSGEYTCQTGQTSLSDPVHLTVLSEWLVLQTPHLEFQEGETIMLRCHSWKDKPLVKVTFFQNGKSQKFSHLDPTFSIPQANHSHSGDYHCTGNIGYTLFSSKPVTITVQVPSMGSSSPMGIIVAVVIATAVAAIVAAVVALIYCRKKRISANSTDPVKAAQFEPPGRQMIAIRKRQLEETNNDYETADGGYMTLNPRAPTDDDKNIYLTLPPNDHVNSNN

[5] = biological target: T3, recombinant human NKp46 expressed on …; experiment: flow cytometry, CHO-huNKp46 cells, apparent KD; SD 2.8
Method: (§1) The CHO cells were incubated with serial dilutions of the indicated trispecific constructs and control constructs at 37° C., and cell surface bound antibodies were detected by FITC-conjugated goat anti-human IgG Fc and flow cytometric analysis. Measured median fluorescence intensity values were used to calculate apparent affinities (KD) by non-linear regression.

[6] = biological target: T4, recombinant human CD32A expressed on …; experiment: flow cytometry, CHO-huCD32A cells, apparent KD; SD 405.5
Method: as §1

[7] = biological target: T1, recombinant human CD64 expressed on the …; experiment: flow cytometry, CHO-huCD64 cells, apparent KD; SD 2.7
Method: as §1

[8] = biological target: T1, recombinant human CD64 expressed on the …; experiment: flow cytometry, CHO-huCD64 cells, apparent KD; SD 7.6
Method: as §1

[9] = biological target: T5, recombinant human NKG2D expressed on the surface of CHO cells (human, UniProt P26718 1-216); experiment: flow cytometry, CHO-huNKG2D cells, apparent KD; SD 16.2
T5 construct: whole, on cells; also called huNKG2D; CD314
T5 sequence (looked up): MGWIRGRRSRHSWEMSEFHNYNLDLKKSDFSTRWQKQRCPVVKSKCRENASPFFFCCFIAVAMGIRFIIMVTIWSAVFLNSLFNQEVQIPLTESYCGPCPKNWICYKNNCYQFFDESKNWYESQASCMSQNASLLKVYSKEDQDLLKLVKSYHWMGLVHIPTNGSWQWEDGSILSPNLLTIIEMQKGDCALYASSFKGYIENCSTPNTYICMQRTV
Method: as §1

[10] = biological target: T4, recombinant human CD32A expressed on …; experiment: flow cytometry, CHO-huCD32A cells, apparent KD; SD n.a.
Method: as §1

[11] = biological target: T5, recombinant human NKG2D expressed on …; experiment: flow cytometry, CHO-huNKG2D cells, apparent KD; SD 6.8
Method: as §1

[12] = biological target: T1, recombinant human CD64 expressed on the …; experiment: flow cytometry, CHO-huCD64 cells, apparent KD; SD 7.7
Method: as §1

[13] = biological target: T1, recombinant human CD64 expressed on the …; experiment: flow cytometry, CHO-huCD64 cells, apparent KD; SD 5.8
[14] = biological target: T3, recombinant human NKp46 expressed on …; experiment: flow cytometry, CHO-huNKp46 cells, apparent KD; SD 1.9
[15] = biological target: T4, recombinant human CD32A expressed on …; experiment: flow cytometry, CHO-huCD32A cells, apparent KD; SD 2169.4

T1 sequence (P12314 16-374): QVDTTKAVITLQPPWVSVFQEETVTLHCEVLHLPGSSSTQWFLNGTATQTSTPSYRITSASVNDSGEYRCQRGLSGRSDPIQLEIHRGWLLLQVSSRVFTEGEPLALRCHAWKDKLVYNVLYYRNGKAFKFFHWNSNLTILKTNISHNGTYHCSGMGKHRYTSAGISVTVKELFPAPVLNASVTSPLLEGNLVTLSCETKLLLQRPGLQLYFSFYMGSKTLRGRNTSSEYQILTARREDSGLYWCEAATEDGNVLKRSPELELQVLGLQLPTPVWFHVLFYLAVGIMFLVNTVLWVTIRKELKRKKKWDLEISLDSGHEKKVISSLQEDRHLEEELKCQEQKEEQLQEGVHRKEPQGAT

B1: scFv-IgAb-396 (bispecific antibody)
chain 1: not shown
chain 2: DIVMTQSPATLSLSPGERATLSCRSSKSLQNVNGNTYLYWFQQKPGQSPQLLIYRMSNLNSGVPDRFSGSGSGTEFTLTISSLEPEDFAVYYCMQHLEYPITFGAGTKLEIKRTVAAPSVFIFPPSDEQLKSGTASVVCLLNNFYPREAKVQWKVDNALQSGNSQESVTEQDSKDSTYSLSSTLTLSKADYEKHKVYACEVTHQGLSSPVTKSFNRGEC
- Kd [1]: 34.1 nM
- Kd [2]: 5190 nM
- Kd [3]: 9.8 nM
- Kd [4]: 374 nM

B2: 1Fab-AFc-1Fab-6 (bispecific antibody, human IgG1, kappa)
chain 1: DIVMTQSPATLSLSPGERATLSCRSSKSLQNVNGNTYLYWFQQKPGQSPQLLIYRMSNLNSGVPDRFSGSGSGTEFTLTISSLEPEDFAVYYCMQHLEYPITFGAGTKLEIKRTVAAPSVFIFPPSDEQLKSGTASVVCLLNNFYPREAKVQWKVDNALQSGNSQESVTEQDSKDSTYSLSSTLTLSKADYEKHKVYACEVTHQGLSSPVTKSFNRGECDKTHTCPPCPAPELLGGPDVFLFPPKPKDTLMISRTPEVTCVVVDVSHEDPEVKFNWYVDGVEVHNAKTKPREEQYNSTYRVVSVLTVLHQDWLNGKEYKCKVSNKALPAPEEKTISKAKGQPREPQVYTLPPSREEMTKNQVSLWCLVKGFYPSDIAVEWESNGQPENNYKTTPPVLDSDGSFFLYSKLTVDKSRWQQGNVFSCSVMHEALHNHYTQKSLSLSPGK
chain 2: EVQLVESGGGLVKPGGSLKLSCAASGYTFTSYVMHWVRQAPGKGLEWIGYINPYNDGTKYNEKFQGRVTISSDKSISTAYMELSSLRSEDTAMYYCARGTYYYGTRVFDYWGQGTLVTVSSASTKGPSVFPLAPSSKSTSGGTAALGCLVKDYFPEPVTVSWNSGALTSGVHTFPAVLQSSGLYSLSSVVTVPSSSLGTQTYICNVNHKPSNTKVDKKVEPKSCDKTHTCPPCPAPELLGGPDVFLFPPKPKDTLMISRTPEVTCVVVDVSHEDPEVKFNWYVDGVEVHNAKTKPREEQYNSTYRVVSVLTVLHQDWLNGKEYKCKVSNKALPAPEEKTISKAKGQPREPQVYTLPPSREEMTKNQVSLSCAVKGFYPSDIAVEWESNGQPENNYKTTPPVLDSDGSFFLVSKLTVDKSRWQQGNVFSCSVMHEALHNHYTQKSLSLSPGSTGSEVQLQQSGPELVKPGASVKISCKTSGYTFTEYTMHWVKQSHGKSLEWIGGISPNIGGTSYNQKFKGKATLTVDKSSSTAYMELRSLTSEDSAVYYCARRGGSFDYWGQGTTLTVSSRTVAAPSVFIFPPSDEQLKSGTASVVCLLNNFYPREAKVQWKVDNALQSGNSQESVTEQDSKDSTYSLSSTLTLSKADYEKHKVYACEVTHQGLSSPVTKSFNRGEC
chain 3: DIVMTQSPATLSVTPGDRVSLSCRASQSISDYLHWYQQKSHESPRLLIKYASQSISGIPSRFSGSGSGSDFTLSINSVEPEDVGVYYCQNGHSFPLTFGAGTKLELKASTKGPSVFPLAPSSKSTSGGTAALGCLVKDYFPEPVTVSWNSGALTSGVHTFPAVLQSSGLYSLSSVVTVPSSSLGTQTYICNVNHKPSNTKVDKKVEPKSCDKTH
notes: CD19, Fc-enhanced Fc, NKp46(NKp46-3); also called ComparatorA_6
- Kd [5]: 45.8 nM
- Kd [6]: 1010 nM
- Kd [7]: 12.6 nM

B3: AIG-1scFv-5 (ComparatorB_1) (bispecific antibody, human IgG1, kappa)
heavy 1: not shown
light: B1 chain 2
heavy 2: not shown
notes: CD19, wt Fc, NKG2D(KYK-2.0)
- Kd [8]: 27.4 nM
- Kd [9]: 28.5 nM
- Kd [10]: 2470 nM

B4: AIG-1scFv-6 (ComparatorB_2) (bispecific antibody, human IgG1, kappa)
heavy 1: not shown
light: B1 chain 2
heavy 2: not shown
notes: CD19, wt Fc, NKG2D(ADI-27743)
- Kd [11]: 22.3 nM
- Kd [10]: 2530 nM
- Kd [12]: 22.8 nM

B5: scFv-IgAb-395 (bispecific antibody)
chain 1: not shown
chain 2: B1 chain 2
- Kd [13]: 42.3 nM
- Kd [14]: 5.7 nM
- Kd [15]: 5630 nM
